Reference: patent US20200362026A1 (INSTITUTE FOR RESEARCH IN BIOMEDICINE, published 2020)
Blank lines part the entries; values can stand above or below the binder they belong to.

What was measured:
FcγRIIb [1] = biological target: T1, FcγRIIb (UniProt P31994 43-310, limits assumed); assay: flow cytometry, TZM-bl cells expressing FcγRIIb, mAb alone (w/o GM-CSF)
T1 construct: whole, on cells; also called FcgRIIb; Fcγ receptor IIb
T1 sequence (looked up): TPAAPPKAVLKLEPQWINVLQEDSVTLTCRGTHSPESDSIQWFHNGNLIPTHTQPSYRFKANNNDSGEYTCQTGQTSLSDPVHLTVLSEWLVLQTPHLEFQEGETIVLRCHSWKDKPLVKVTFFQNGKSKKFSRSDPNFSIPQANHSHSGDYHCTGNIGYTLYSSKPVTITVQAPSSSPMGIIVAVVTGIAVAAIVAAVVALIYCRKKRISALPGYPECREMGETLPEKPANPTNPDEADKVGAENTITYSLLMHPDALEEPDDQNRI
Experimental: (§1) Expression of specific FcγRs was assessed by staining TZM-b1 cells with FITC-conjugated anti-CD64 (anti-FcγRI), anti-CD32 (anti-FcγRIIa and anti-FcγRIIb) and anti-CD16 (anti-FcγRIIIa) antibodies (all from BD Pharmingen). Untrasfected and transfected TZM-b1 cells were washed with staining buffer (PBS with 10% Fetal Bovine Serum and 2 mM EDTA) and seeded in 96-well-plates at a density of 50,000 cells per well. […] The LALA versions of all antibodies and a mAb with a different specificity were included as controls. Samples were incubated at 37° C. for 30 min to allow the formation of immune complexes and then cooled down to 4° C. before adding them to TZM-b1 cells for 30 min. Cells were washed twice and stained with anti-human IgG Fcγ fragment specific F(ab′)2 fragment (Jackson ImmunoResearch). Samples were analyzed on BD FACSCanto (BD Biosciences) and median intensity fluorescence was analyzed and compared between samples.
(§2) To address the engagement of Fcγ receptors, immune complexes formed between GM-CSF and multispecific antibodies were tested for their capacity to bind to TZM-b1 cells expressing FcγRIIa and FcγRIIb receptors. Multispecific antibodies were mixed with 0.05 μg/ml of GM-CSF, or staining buffer. Samples were incubated at 37° C. for 30 min to allow the formation of immune complexes and then cooled down to 4° C. before adding them to TZM-b1 cells for 30 minutes. Cells were washed twice and stained with anti-human IgG Fcγ fragment specific F(ab′)2 fragment. Samples were analyzed on BD FACSCanto (BD Biosciences) and median intensity fluorescence was analyzed and compared between samples.

FcγRIIa [2] = biological target: T2, FcγRIIa (UniProt P12318 34-317, limits assumed); assay: flow cytometry, TZM-bl cells expressing FcγRIIa, immune complex with low GM-CSF
T2 construct: whole, on cells; also called FcgRIIa; Fcγ receptor IIa
T2 sequence (looked up): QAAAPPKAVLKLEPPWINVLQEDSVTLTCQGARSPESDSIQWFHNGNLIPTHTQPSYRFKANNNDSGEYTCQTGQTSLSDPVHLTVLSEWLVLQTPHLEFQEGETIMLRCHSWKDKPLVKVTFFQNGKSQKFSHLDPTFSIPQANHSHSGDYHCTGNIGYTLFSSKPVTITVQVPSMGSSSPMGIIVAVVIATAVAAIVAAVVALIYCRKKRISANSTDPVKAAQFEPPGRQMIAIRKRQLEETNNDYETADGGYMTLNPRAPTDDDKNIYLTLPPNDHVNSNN
Experimental: as §1, §2

[3] = biological target: T3, human GM-CSF (granulocyte macrophage-colony stimulating factor) (human, UniProt P04141 18-144); assay: cell-based or functional assay
T3 sequence (P04141 18-144 limits assumed): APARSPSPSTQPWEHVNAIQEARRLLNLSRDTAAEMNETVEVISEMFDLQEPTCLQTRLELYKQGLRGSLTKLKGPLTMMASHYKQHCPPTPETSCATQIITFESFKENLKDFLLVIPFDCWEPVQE

FcγRIIb [4] = biological target: T1, FcγRIIb; assay: flow cytometry, TZM-bl FcγRIIb cells; average ratio of binding in presence and in absence of GM-CSF
Experimental: as §1, §2

FcγRIIb [5] = biological target: T1, FcγRIIb; assay: flow cytometry, TZM-bl cells expressing FcγRIIb, immune complex with low GM-CSF
Experimental: as §1, §2

FcγRIIa [6] = biological target: T2, FcγRIIa; assay: flow cytometry, TZM-bl cells expressing FcγRIIa, immune complex with high GM-CSF
Experimental: as §2

[7] = biological target: T3, human GM-CSF (granulocyte …); assay: ELISA on GM-CSF
FcγRIIb [8] = biological target: T1, FcγRIIb; assay: flow cytometry, TZM-bl cells expressing FcγRIIb, immune complex with high GM-CSF
Experimental: as §1, §2

FcγRIIa [9] = biological target: T2, FcγRIIa; assay: flow cytometry, TZM-bl cells expressing FcγRIIa, mAb alone (w/o GM-CSF)
Experimental: as §1, §2

FcγRIIa [10] = biological target: T2, FcγRIIa; assay: flow cytometry, TZM-bl FcγRIIa cells; average ratio of binding in presence and in absence of GM-CSF
Experimental: as §2

MFI (FcγRIIb [1]): 96700 MFI
MFI (FcγRIIa [2]): 7130 MFI
IC90 less stringent conditions (50 pg/ml GM-CSF, 1,000 TF-1/well) [3]: 0.000559 µg/mL
IC90 more stringent conditions (500 pg/ml GM-CSF, 1,000 TF-1/well) [3]: 0.00621 µg/mL
IC90 stringent conditions (50 pg/ml GM-CSF, 10,000 TF-1/well) [3]: 0.00107 µg/mL
IC90 very stringent conditions (500 pg/ml GM-CSF, 10,000 TF-1/well) [3]: 0.0112 µg/mL
Average RATIO FcgRIIb (FcγRIIb [4]): 7.67 ratio
MFI (FcγRIIb [5]): 181000 MFI
MFI (FcγRIIa [6]): 269000 MFI
EC50 [7]: 0.0486 µg/mL
MFI (FcγRIIb [8]): 1.3e+06 MFI
MFI (FcγRIIa [9]): 6910 MFI
Average RATIO FcgRIIa (FcγRIIa [10]): 20 ratio
B1: Bs3GC2b bispecific antibody (bispecific antibody, human IgG1, lambda)
heavy: not shown
light: SYVLTQPPSVSVAPGQTASLTCGGTNIGSKSVHWYQQKAGQAPVLVVYADNDRPSGVPERFSGSNSGNTATLTISRVEAEDESDYFCQVWDGNTDHVVFGGGTKLTVLGQPKAAPSVTLFPPSSEELQANKATLVCLISDFYPGAVTVAWKADSSPVKAGVETTTPSKQSNNKYAASSYLSLTPEQWKSHRSYSCQVTHEGSTVEKTVAPTECS
notes: Bispecific tetravalent IgG1, construct type Bs3; specificities GCE536 + GCB59

MFI (FcγRIIb [1]): 2630 MFI
MFI (FcγRIIa [2]): 8290 MFI
IC90 less stringent conditions (50 pg/ml GM-CSF, 1,000 TF-1/well) [3]: 0.00128 µg/mL
IC90 more stringent conditions (500 pg/ml GM-CSF, 1,000 TF-1/well) [3]: 0.0178 µg/mL
IC90 stringent conditions (50 pg/ml GM-CSF, 10,000 TF-1/well) [3]: 0.00296 µg/mL
IC90 very stringent conditions (500 pg/ml GM-CSF, 10,000 TF-1/well) [3]: 0.124 µg/mL
Average RATIO FcgRIIb (FcγRIIb [4]): 93.3 ratio
MFI (FcγRIIb [5]): 57800 MFI
MFI (FcγRIIa [6]): 55000 MFI
EC50 [7]: 0.587 µg/mL
MFI (FcγRIIb [8]): 433000 MFI
MFI (FcγRIIa [9]): 650 MFI
Average RATIO FcgRIIa (FcγRIIa [10]): 48.7 ratio
B2: Bs3GC3b bispecific antibody (bispecific antibody, human IgG1, lambda)
heavy: not shown
light: B1 light
notes: Bispecific tetravalent IgG1, construct type Bs3; specificities GCA7 + GCB59

MFI (FcγRIIb [1]): 123000 MFI
MFI (FcγRIIa [2]): 24500 MFI
IC90 less stringent conditions (50 pg/ml GM-CSF, 1,000 TF-1/well) [3]: 0.00926 µg/mL
IC90 more stringent conditions (500 pg/ml GM-CSF, 1,000 TF-1/well) [3]: 0.0975 µg/mL
IC90 stringent conditions (50 pg/ml GM-CSF, 10,000 TF-1/well) [3]: 0.0908 µg/mL
IC90 very stringent conditions (500 pg/ml GM-CSF, 10,000 TF-1/well) [3]: 0.739 µg/mL
Average RATIO FcgRIIb (FcγRIIb [4]): 0.81 ratio
MFI (FcγRIIb [5]): 137000 MFI
MFI (FcγRIIa [6]): 19500 MFI
EC50 [7]: 0.0323 µg/mL
MFI (FcγRIIb [8]): 62600 MFI
MFI (FcγRIIa [9]): 6730 MFI
Average RATIO FcgRIIa (FcγRIIa [10]): 3.26 ratio
B3: Bs3GC4 bispecific antibody (bispecific antibody, human IgG1, kappa)
heavy: not shown
light: DIQMTQSPSTLSTSVGDRVTITCRASQNILNWLAWYQQKPGNAPNLLIYKASDLQSGVPSRFSGSGSGTEFTLTISSLQPDDFATYYCQHYNSYPLTFGGGTKVEIKRTVAAPSVFIFPPSDEQLKSGTASVVCLLNNFYPREAKVQWKVDNALQSGNSQESVTEQDSKDSTYSLSSTLTLSKADYEKHKVYACEVTHQGLSSPVTKSFNRGEC
notes: Bispecific tetravalent IgG1, construct type Bs3; specificities GCA21 + GCE536; also called BsGC4

MFI (FcγRIIb [1]): 177000 MFI
MFI (FcγRIIa [2]): 30200 MFI
IC90 less stringent conditions (50 pg/ml GM-CSF, 1,000 TF-1/well) [3]: 0.0013 µg/mL
IC90 more stringent conditions (500 pg/ml GM-CSF, 1,000 TF-1/well) [3]: 0.00647 µg/mL
IC90 stringent conditions (50 pg/ml GM-CSF, 10,000 TF-1/well) [3]: 0.00418 µg/mL
IC90 very stringent conditions (500 pg/ml GM-CSF, 10,000 TF-1/well) [3]: 0.0103 µg/mL
Average RATIO FcgRIIb (FcγRIIb [4]): 5.58 ratio
MFI (FcγRIIb [5]): 393000 MFI
MFI (FcγRIIa [6]): 468000 MFI
EC50 [7]: 0.0418 µg/mL
MFI (FcγRIIb [8]): 1.58e+06 MFI
MFI (FcγRIIa [9]): 1100 MFI
Average RATIO FcgRIIa (FcγRIIa [10]): 226 ratio
B4: Bs3GC5 bispecific antibody (bispecific antibody, human IgG1, kappa)
heavy: not shown
light: B3 light
notes: Bispecific tetravalent IgG1, construct type Bs3; specificities GCA21 + GCA7
